Measured values taken from US20210380703A1.
Substitutions are numbered along the chain they refer to.

B1: 374_G03 (antibody, V domains shown)
VH: EVQLLESGGGLVQPGGSLRLSCAASGFTFSDYSMNWVRQAPGKGLEWVSGINYNGGYTSYADSVKGRFTISRDNSKNTLYLQMNSLRAEDTAVYYCARGANWHDTALDYWGQGTLVTVSS
VL: DIQMTQSPSSLSASVGDRVTITCRASQSISSYLNWYQQKPGKAPKLVIYAATSRASGVPSRFSGSGSGTDFTLTISSLQPEDFATYYCQQSDDTPLTFGGGTKVEIK
B2: 374_G08 (antibody, V domains shown)
VH: B1 VH with S30D, D31S
VL: B1 VL with S30L, S31T, L33V, D92Y, T94S
B3: 374_G09 (antibody, V domains shown)
VH: B1 VH with D31S, S49A, T58K, S59G, A106H
VL: B1 VL with S30V, S31R, R54L, D92Y, D93E, T94L
B4: 368_B03 (antibody, V domains shown)
VH: B1 VH with S30D, S33G, G99A
VL: B1 VL with S30L, S31T, R54L, Q90H, D92Y, D93E, T94N
B5: 374_G10 (antibody, V domains shown)
VH: B1 VH with D31S, G50S, G55S, A106H
VL: B1 VL with S30V, A51V, D92Y, T94S
B6: 374_G11 (antibody, V domains shown)
VH: B1 VH
VL: B1 VL with S30I, L33V, R54L, D92Y, T94S
B7: 374_H01 (antibody, V domains shown)
VH: B1 VH with S30D, D31S, S49A, A106H
VL: B1 VL with S30L, R54L, D92Y, D93E, T94N
B8: 374_H11 (antibody, V domains shown)
VH: B1 VH with D31S
VL: B1 VL with S30I, L33V, R54L, A55H, D92Y, D93S, T94N
B9: 375_A07 (antibody, V domains shown)
VH: B1 VH with S30D, D31S, G50S, G55S, S59G, A106H
VL: B1 VL with S30L, S31T, V47L, D92Y
B10: 375_A08 (antibody, V domains shown)
VH: B1 VH with D31S, S49A, S59G
VL: B1 VL with S30V, S31T, V47L, D92Y, D93E, T94S
B11: 375_A12 (antibody, V domains shown)
VH: B1 VH with D31S, G55S, T58K
VL: B1 VL with S30L, A51V, D92Y, D93E
B12: 375_B12 (antibody, V domains shown)
VH: B1 VH with S30D, D31S, S49A, T58K
VL: B1 VL with S30V, S31T, V47L, D92Y
B13: 375_C04 (antibody, V domains shown)
VH: B1 VH with S49A
VL: B1 VL with S30L, S31T, D92Y, D93E, T94S
B14: 368_B08 (antibody, V domains shown)
VH: B1 VH with S30D, D31S, S33G, G50S, G99A, A106H
VL: B1 VL with S30L, S31T, L33V, D92Y, D93E, T94N
B15: 375_D01 (antibody, V domains shown)
VH: B1 VH with D31S, S59G
VL: B1 VL with S30L, S31T, D92Y, D93E
B16: 375_D10 (antibody, V domains shown)
VH: B1 VH with D31S, S49A
VL: B1 VL with S30L, S31T, L33V, V47L, T94S
B17: 375_E03 (antibody, V domains shown)
VH: B1 VH with S49A, G50N, S59G, A106H
VL: B1 VL with S30L, S31T, R54L, D92Y, T94N
B18: 375_E06 (antibody, V domains shown)
VH: B1 VH with D31S, T58K
VL: B1 VL with S30L, D92Y, T94S
B19: 375_E10 (antibody, V domains shown)
VH: B1 VH with D31S
VL: B1 VL with S30L, D92Y, T94N
B20: 375_F02 (antibody, V domains shown)
VH: B1 VH with D31S, S49A, G50S, G55S, A106H
VL: B1 VL with S30L, V47L, D92Y, T94S
B21: 375_F07 (antibody, V domains shown)
VH: B1 VH with G50N, S59G
VL: B1 VL with S30L, V47L, D92Y, T94S
B22: 375_F08 (antibody, V domains shown)
VH: B1 VH with D31S, S33G, G50S, G55S, T58K, A106H
VL: B1 VL with S30L, V47L, A55H, D92Y, T94N
B23: 368_B10 (antibody, V domains shown)
VH: B1 VH with S30D, D31S, S33G, N35H, S49A, G50S, G99A
VL: B1 VL with S30L, S31T, D93E, T94L
B24: 375_G04 (antibody, V domains shown)
VH: B1 VH with D31S, S33G, S49A, G50S, G55S, S59G, A106H
VL: B1 VL with S30V, L33V, V47L, R54L, D92Y, T94S
B25: 375_G05 (antibody, V domains shown)
VH: B1 VH with D31S, S49A
VL: B1 VL with S30V, V47L, A51V, D92Y, T94S
B26: 375_H05 (antibody, V domains shown)
VH: B1 VH with D31S, G50N, S59G
VL: B1 VL with S30L, L33V, V47L, D92Y
B27: 376_B03 (antibody, V domains shown)
VH: B1 VH with D31S, S49A, G55S, T58K
VL: B1 VL with S30L, L33V, A51V, A55H, D92Y, T94S
B28: 376_C04 (antibody, V domains shown)
VH: B1 VH with D31S, S33G, G50N, S59G
VL: B1 VL with S30L, L33V, V47L, A51V, A55H, D92Y, T94N
B29: 365_B04 (antibody, V domains shown)
VH: B1 VH with D31S, S33G, N35H, S49A, G50S, G55S, G99A
VL: B1 VL with S30L, S31T, V47L, A55H, D93E, T94S
B30: 368_B11 (antibody, V domains shown)
VH: B1 VH with S30D, D31S, S33G, N35H, T58K, G99A, A106H
VL: B1 VL with S30L, V47L, T52S, R54L, A55Q, D92Y, T94S
B31: 376_E02 (antibody, V domains shown)
VH: B1 VH with D31S, S49A, T58K, S59G
VL: B1 VL with S30L, L33V, A55H, D93N
B32: 376_E11 (antibody, V domains shown)
VH: B1 VH with D31S
VL: B1 VL with S30L, S31T, L33V, D92Y, D93E, T94L
B33: 368_C09 (antibody, V domains shown)
VH: B1 VH with D31S, N35H, G50N, S59G, G99A, A106H
VL: B1 VL with S30L, S31T, L33V, V47L, R54L, D92Y, T94L
B34: 368_D09 (antibody, V domains shown)
VH: B1 VH with S30D, D31S, S33G, N35H, S49A, G55S, T58K, G99A, A106H
VL: B1 VL with S30V, L33V, V47L, R54L, D92Y, T94N
B35: 368_F10 (antibody, V domains shown)
VH: B1 VH with D31S, S33G, S49A, G55S, G99A, A106H
VL: B1 VL with S30V, L33V, V47L, D92Y
B36: 369_B03 (antibody, V domains shown)
VH: B1 VH with D31S, S33G, N35H, S49A, G99A
VL: B1 VL with S30L, S31T, L33V, R54L, D92Y, D93E, T94L
B37: 369_G10 (antibody, V domains shown)
VH: B1 VH with D31S, S33G, N35H, S49A, G50S, G99A
VL: B1 VL with S30L, D92Y, T94S
B38: 369_H03 (antibody, V domains shown)
VH: B1 VH with D31S, N35H, S49A, G50S, G55S, T58K, G99A
VL: B1 VL with S30V, V47L, A51T, D92Y
B39: 370_B01 (antibody, V domains shown)
VH: B1 VH with S30D, S33G, N35H, T58K, G99A
VL: B1 VL with S30L, L33V, V47L, A50V, T52S, D92Y, D93S, T94L
B40: 365_B10 (antibody, V domains shown)
VH: B1 VH with S30D, N35H, S49A, G50S, G55S, T58K, S59G, G99A
VL: B1 VL with S30L, S31R, V47L, D93N, T94L
B41: 370_H08 (antibody, V domains shown)
VH: B1 VH with D31S, S33G, N35H, S49A, G50S, G99A, A106H
VL: B1 VL with S30L, L33V, V47L, A55H, D92Y, D93S, T94L
B42: 371_A04 (antibody, V domains shown)
VH: B1 VH with S30D, D31S, S33G, G50S, G55S, S59G, G99A
VL: B1 VL with S30L, S31T, V47L, A51V, D92Y
B43: 371_A09 (antibody, V domains shown)
VH: B1 VH with D31S, S33G, T58K, G99A
VL: B1 VL with S30V, S31T, L33V, D92Y, T94S
B44: 371_D07 (antibody, V domains shown)
VH: B1 VH with S30D, S33G, S49A, G50N, T58K, S59G, G99A, A106H
VL: B1 VL with S30L, S31T, D92Y, D93E, T94L
B45: 371_D12 (antibody, V domains shown)
VH: B1 VH with S30D, D31S, S33G, T58K, G99A
VL: B1 VL with S30L, V47L, D92Y, D93E, T94L
B46: 371_H02 (antibody, V domains shown)
VH: B1 VH with S30D, T58K, G99A, A106H
VL: B1 VL with S30I, R54L, D92Y, D93E, T94N
B47: 372_A09 (antibody, V domains shown)
VH: B1 VH with S30D, D31S, S33G, G99A
VL: B1 VL with S30L, D92Y, D93N, T94S
B48: 372_B11 (antibody, V domains shown)
VH: B1 VH with D31S, N35H, S49A, G55S, G99A, A106H
VL: B1 VL with S30L, S31T, L33V, R54L, D92Y

Target: human Fc (human)
Assay: ELISA, negative control

| Binder | optical density [OD] |
| --- | --- |
| B1 | 0.193 |
| B2 | 0.206 |
| B3 | 0.223 |
| B4 | 0.297 |
| B5 | 0.173 |
| B6 | 0.179 |
| B7 | 0.251 |
| B8 | 0.169 |
| B9 | 0.188 |
| B10 | 0.205 |
| B11 | 0.174 |
| B12 | 0.223 |
| B13 | 0.221 |
| B14 | 0.314 |
| B15 | 0.182 |
| B16 | 0.228 |
| B17 | 0.181 |
| B18 | 0.188 |
| B19 | 0.187 |
| B20 | 0.205 |
| B21 | 0.172 |
| B22 | 0.201 |
| B23 | 0.412 |
| B24 | 0.161 |

| Binder | optical density [OD] |
| --- | --- |
| B25 | 0.21 |
| B26 | 0.167 |
| B27 | 0.253 |
| B28 | 0.219 |
| B29 | 0.271 |
| B30 | 0.286 |
| B31 | 0.222 |
| B32 | 0.268 |
| B33 | 0.341 |
| B34 | 0.212 |
| B35 | 0.328 |
| B36 | 0.62 |
| B37 | 0.423 |
| B38 | 0.498 |
| B39 | 0.47 |
| B40 | 0.322 |
| B41 | 0.538 |
| B42 | 0.315 |
| B43 | 0.302 |
| B44 | 0.299 |
| B45 | 0.337 |
| B46 | 0.388 |
| B47 | 0.31 |
| B48 | 0.438 |
